Target: Fibronectin from human plasma (human) (UniProt P02751)
Experiment: cell-based or functional assay

Sequence of yeast enolase (Sigma) (P00924 2-437): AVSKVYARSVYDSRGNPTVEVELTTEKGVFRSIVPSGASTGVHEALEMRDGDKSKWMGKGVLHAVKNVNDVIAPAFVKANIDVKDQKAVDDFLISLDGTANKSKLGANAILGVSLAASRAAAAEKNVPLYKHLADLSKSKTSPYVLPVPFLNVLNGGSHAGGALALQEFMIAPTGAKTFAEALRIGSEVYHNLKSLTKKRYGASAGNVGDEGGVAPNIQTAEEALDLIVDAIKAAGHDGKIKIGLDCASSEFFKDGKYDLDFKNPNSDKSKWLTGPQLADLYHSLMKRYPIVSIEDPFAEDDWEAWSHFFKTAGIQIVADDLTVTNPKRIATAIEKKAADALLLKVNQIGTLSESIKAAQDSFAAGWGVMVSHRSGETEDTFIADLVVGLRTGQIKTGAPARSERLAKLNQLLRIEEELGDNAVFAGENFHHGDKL
Sequence of Fibronectin from human plasma (human) (P02751 32-2477): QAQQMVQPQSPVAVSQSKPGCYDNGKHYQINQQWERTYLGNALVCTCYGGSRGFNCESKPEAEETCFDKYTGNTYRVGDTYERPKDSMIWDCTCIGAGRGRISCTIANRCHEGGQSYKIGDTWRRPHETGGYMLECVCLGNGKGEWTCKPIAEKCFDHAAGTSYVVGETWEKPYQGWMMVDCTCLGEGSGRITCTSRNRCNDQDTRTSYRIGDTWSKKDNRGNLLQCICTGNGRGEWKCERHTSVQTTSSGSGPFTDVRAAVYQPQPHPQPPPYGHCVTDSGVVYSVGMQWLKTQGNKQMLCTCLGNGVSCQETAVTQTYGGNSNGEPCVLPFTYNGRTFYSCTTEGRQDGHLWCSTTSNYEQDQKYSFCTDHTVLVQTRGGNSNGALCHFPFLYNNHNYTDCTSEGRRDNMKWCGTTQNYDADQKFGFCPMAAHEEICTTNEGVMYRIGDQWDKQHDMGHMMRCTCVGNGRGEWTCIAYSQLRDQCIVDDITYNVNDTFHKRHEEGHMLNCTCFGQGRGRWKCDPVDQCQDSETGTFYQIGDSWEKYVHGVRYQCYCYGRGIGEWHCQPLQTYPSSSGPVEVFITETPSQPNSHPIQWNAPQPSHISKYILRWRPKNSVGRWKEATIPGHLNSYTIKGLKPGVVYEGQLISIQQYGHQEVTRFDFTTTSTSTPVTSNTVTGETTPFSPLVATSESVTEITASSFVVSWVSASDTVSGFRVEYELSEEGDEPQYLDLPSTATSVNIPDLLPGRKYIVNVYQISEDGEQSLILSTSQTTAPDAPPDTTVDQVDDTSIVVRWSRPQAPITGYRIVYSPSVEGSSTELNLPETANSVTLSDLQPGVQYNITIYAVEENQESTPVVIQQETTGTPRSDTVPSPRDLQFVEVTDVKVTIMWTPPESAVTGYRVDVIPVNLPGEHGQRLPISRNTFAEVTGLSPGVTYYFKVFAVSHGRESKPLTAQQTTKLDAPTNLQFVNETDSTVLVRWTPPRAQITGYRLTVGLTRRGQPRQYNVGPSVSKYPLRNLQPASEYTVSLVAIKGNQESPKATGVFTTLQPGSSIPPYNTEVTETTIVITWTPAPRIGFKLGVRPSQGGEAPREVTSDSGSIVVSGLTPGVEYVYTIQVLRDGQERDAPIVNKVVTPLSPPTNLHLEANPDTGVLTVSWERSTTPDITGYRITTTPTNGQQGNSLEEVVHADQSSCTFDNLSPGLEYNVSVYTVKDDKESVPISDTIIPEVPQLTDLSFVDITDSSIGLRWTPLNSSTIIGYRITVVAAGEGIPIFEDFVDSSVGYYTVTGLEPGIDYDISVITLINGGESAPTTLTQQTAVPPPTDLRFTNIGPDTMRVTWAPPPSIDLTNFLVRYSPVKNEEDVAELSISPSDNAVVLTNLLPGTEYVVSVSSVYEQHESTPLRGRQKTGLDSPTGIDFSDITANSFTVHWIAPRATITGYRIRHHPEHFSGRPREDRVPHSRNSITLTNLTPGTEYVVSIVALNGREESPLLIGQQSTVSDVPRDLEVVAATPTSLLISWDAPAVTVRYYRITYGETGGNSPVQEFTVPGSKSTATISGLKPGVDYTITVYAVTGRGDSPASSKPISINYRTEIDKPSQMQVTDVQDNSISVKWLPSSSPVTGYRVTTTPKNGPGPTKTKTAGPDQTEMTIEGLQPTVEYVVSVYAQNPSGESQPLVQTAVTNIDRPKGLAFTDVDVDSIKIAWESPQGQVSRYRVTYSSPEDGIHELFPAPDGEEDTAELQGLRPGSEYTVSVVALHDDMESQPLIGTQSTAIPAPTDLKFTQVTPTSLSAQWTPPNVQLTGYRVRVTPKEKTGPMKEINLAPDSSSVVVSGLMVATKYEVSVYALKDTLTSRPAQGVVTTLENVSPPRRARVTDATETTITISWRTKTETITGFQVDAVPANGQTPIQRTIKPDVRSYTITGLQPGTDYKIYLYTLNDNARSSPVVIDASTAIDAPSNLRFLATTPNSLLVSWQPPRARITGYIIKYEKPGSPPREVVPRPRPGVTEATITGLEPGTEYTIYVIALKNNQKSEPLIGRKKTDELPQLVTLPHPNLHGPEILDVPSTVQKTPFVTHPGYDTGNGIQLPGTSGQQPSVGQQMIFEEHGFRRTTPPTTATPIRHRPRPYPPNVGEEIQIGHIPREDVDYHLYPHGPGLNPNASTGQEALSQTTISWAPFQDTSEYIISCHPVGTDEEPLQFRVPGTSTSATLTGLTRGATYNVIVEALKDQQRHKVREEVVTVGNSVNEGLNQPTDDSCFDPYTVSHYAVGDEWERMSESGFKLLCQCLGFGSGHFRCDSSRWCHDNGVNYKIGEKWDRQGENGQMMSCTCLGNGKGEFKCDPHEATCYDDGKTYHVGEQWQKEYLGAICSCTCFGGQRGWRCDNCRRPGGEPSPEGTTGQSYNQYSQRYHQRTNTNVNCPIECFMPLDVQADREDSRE

## yeast enolase (Sigma) (from UniProt P00924 2-437)
  inhibition of pneumococcal adherence to fibronectin coated wells: 98%

From patent US20050048590A1
